Starred links: 1 amine or outer side, 2 acyl side, 3 side chain; linkers in the order of their positions; H or OH if unused. Non-standard residues stand in square brackets, D forms with d. Azetidine3carboxylic = O=C(C1CN([*:1])C1)[*:2]; 4Pal = N[C@@H](Cc1ccncc1)C(=O)O; Cha = N[C@@H](CC1CCCCC1)C(=O)O; dCha = N[C@H](CC1CCCCC1)C(=O)O; Aipe = 3-aminobutanoic acid; Iva = CC[C@](C)(N)C(=O)O; dAze = O=C(O)[C@H]1CCN1; Abu = CC[C@H](N)C(=O)O; Aib = CC(C)(N)C(=O)O
What was measured:
human Y2 receptor [1] = target: T1, human Y2 receptor (Homo sapiens, UniProt P49146); test: Receptor Binding Assay (RBA) for Human Y2, [125I]-PYY displacement on hY2R/CHO membrane fraction; conditions: IC50 of test compound/IC50 of PYY(3-36) (PYY(3-36) taken as 1)
T1 construct: expressed in transfected cells; membrane fraction
T1 sequence (P49146 1-381): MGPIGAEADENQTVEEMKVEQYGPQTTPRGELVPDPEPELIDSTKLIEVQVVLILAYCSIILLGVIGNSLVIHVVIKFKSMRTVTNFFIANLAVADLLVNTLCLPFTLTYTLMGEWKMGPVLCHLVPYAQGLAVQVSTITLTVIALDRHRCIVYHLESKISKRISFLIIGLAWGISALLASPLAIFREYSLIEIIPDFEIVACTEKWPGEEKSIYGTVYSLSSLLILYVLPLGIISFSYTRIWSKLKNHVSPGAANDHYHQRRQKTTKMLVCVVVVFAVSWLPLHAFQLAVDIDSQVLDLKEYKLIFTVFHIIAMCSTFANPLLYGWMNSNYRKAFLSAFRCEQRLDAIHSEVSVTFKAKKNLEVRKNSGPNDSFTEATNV
Description: (1) Construction of Expression Plasmid for the Human Y2 Receptor (Y2R) Gene
PCR was performed by a reaction using Pfu DNA polymerase ([…]), with a human brain cDNA (PT3158-1, Clontech) as the template, wherein synthetic DNAs with the following sequences were used as a combination of 5′ and 3′ primers, whereby the human Y2R gene was cloned. Primer 1 was prepared on the basis of base sequence information on the human Y2R gene (Refseq ID No. NM_000910) with the addition of Kozak's consensus sequence. Primer 2 was prepared on the basis of base sequence information on the human Y2R gene.
The PCR product obtained was cloned into pCR4-Blunt-TOPO (Invitrogen), and the plasmid was extracted according to a conventional method (QIAwell 8 Plus, QIAGEN). After confirming the base sequence, the human Y2R gene was re-cloned by a PCR reaction with the plasmid DNA as the template, using Primer 1 as the 5′ primer and Primer 2 as the 3′ primer. The PCR was performed using the Pyrobest DNA polymerase (TaKaRa). The PCR product obtained was re-cloned into pCR-Blunt II-TOPO (Invitrogen), and the plasmid was extracted according to a conventional method (QIAGEN). An Xho I restriction enzyme digestion site and an Spe I restriction enzyme digestion site are present in the cloning site of the pCR-Blunt II-TOPO; a plasmid clone was selected wherein the human Y2R gene was inserted in the orientation such that the Xho I restriction enzyme digestion site was positioned upstream of Primer 1, and the Spe I restriction enzyme digestion site was positioned downstream of Primer 2. After confirming the base sequence, the plasmid clone was digested with the restriction enzymes Xho I and Spe I to yield a DNA fragment. The DNA fragment was inserted into the animal cell expression vector pAKKO-111H (the same plasmid as pAKKO-1.111H described in Biochem. Biophys. Acta, Hinuma, S. et al., 1219, 251-259 (1994)), which was enzymatically digested with Sal I and Spe I, to yield the expression plasmid pAK-hY2R (pAKKO-111H/Y2R).
(2) Test Method: Receptor Binding Assay (RBA) for Human Y2
A human NPY2R (hY2R) stable expression cell line was acquired by transducing the animal cell expression plasmid pAK-hY2R into CHO/dhfr-cells using the CellPhect Transfection kit (Amersham Pharmacia Biotech Co.). First, 240 μl of Buffer A (attached to the CellPhect Transfection kit) was added to 9.6 μg of the plasmid DNA dissolved in 240 μl of distilled water; this mixture was stirred and allowed to stand for 10 minutes, after which 480 μL of Buffer B (attached to the CellPhect Transfection kit) was added, and the mixture was vigorously stirred to form a liposome containing the DNA. 2.5×10^5 or 4×10^5 CHO/dhfr− cells (obtained from ATCC) were seeded to 60 mm petri dishes, and cultured in Ham's F-12 medium (Sigma Co.) containing 10% fetal bovine serum (BioWest Co.) at 37° C. in 5% gaseous carbon dioxide for 1 day, after which 480 μL of the liposome was added drop by drop on to the cells in each petri dish. This was cultured at 37° C. in 5% gaseous carbon dioxide for 6 hours, after which the cells were twice washed with serum-free Ham's F-12 medium; 3 mL of 15% glycerol was added onto the cells in the petri dish and treated for 2 minutes. This was again washed 3 times with serum-free Ham's F-12 medium, after which the cells were cultured in Ham's F-12 medium containing 10% fetal bovine serum at 37° C. in 5% gaseous carbon dioxide. The cells were dispersed by trypsinization and recovered from the petri dishes, and seeded to a 6-well plate at 2.5×10^4 or 4×10^4 cells per well; cultivation was begun in Dulbecco's modified Eagle medium <DMEM> medium (Sigma Co.) containing dialyzed 10% fetal bovine serum (Invitrogen Co.) at 37° C. in 5% gaseous carbon dioxide. Since plasmid-introduced transformant CHO cells grow in the medium, whereas cells without plasmid introduction die gradually, about 20 colonies of transformed CHO cell that had grown 9-13 days after the start of the cultivation were isolated. […]

human Y2 receptor [2] = target: T1, human Y2 receptor; test: Human Y2 Receptor G Protein Binding Assay (GBA), [35S]GTPγS; assay type: biochemical; conditions: EC50 of test compound/EC50 of PYY(3-36) (PYY3-36 taken as 1), hY2R/CHO membrane fraction
Description: (3) Test Method: Human Y2 Receptor G Protein Binding Assay (GBA)
The agonist activity of the compound of the present invention against the human Y2 receptor was measured by the method described below.
2 μL of the test compound, serially diluted with DMSO from 100 μM to 1 nM, was dispensed to a 96-well plate, and 100 μL of the membrane fraction, previously diluted with an assay buffer (50 mM Tris, 5 mM MgCl2, 150 mM NaCl, […], 0.03% NaN3, 0.1% BSA, pH 7.4) to 1 μg protein/mL, was dispensed thereto, subsequently, 100 μL of a [^35S]GTPγS (NEG030H, PerkinElmer, previously diluted with the assay buffer to 1 nM) was added, and they were mixed by pipetting. After incubation at room temperature for 120 minutes, the mixture was filtered through the cell harvester FilterMate (PerkinElmer) using the UniFilter-96 GF/C (PerkinElmer), and the filter was washed 3 times with a filtering buffer (50 mM Tris, 5 mM MgCl2, 150 mM NaCl, 0.03% NaN3, 0.05% CHAPS, pH 7.4). Thereafter, UniFilter-96 GF/C was dried in a mechanical drier for 1 hour, 15 μl of the liquid scintillator MicroScint O (PerkinElmer) was added to each well, and a measurement was taken using TopCount (PerkinElmer). The data obtained were analyzed using Prism to calculate the EC50 value. The agonist activity of the test compound was expressed as a ratio to the EC50 value of PYY3-36 taken as 1 (EC50 Ratio: EC50 of test compound/EC50 of PYY(3-36)). The results are shown in the GBA column in Table 5 (Table 5-1-Table 5-10).

Substance | RBA IC50 Ratio (human Y2 receptor [1]) | GBA EC50 Ratio (human Y2 receptor [2])
Ac-[Abu23, D-Pro24, Abu26, Cha27,28,36, Aib31]-PYY(23-36) (Ac-[Abu][dP]R[Abu][Cha][Cha]NL[Aib]TRQR[Cha]-NH2; SMILES CC[C@H](NC(=O)[C@H](CCCNC(=N)N)NC(=O)[C@H]1CCCN1C(=O)[C@H](CC)NC(C)=O)C(=O)N[C@@H](CC1CCCCC1)C(=O)N[C@@H](CC1CCCCC1)C(=O)N[C@@H](CC(N)=O)C(=O)N[C@@H](CC(C)C)C(=O)NC(C)(C)C(=O)N[C@H](C(=O)N[C@@H](CCCNC(=N)N)C(=O)N[C@@H](CCC(N)=O)C(=O)N[C@@H](CCCNC(=N)N)C(=O)N[C@@H](CC1CCCCC1)C(N)=O)[C@@H](C)O) [compound No. 105] | 6.9 | 4.0
Ac-[Aipe24, Pya(4)26, Cha27,36, Aib28,31, Lys30]-PYY(23-36) (Ac-S[Aipe]R[4Pal][Cha][Aib]NK[Aib]TRQR[Cha]-NH2) [compound No. 243] | 1.3 | 2
Ac-[Ala26, Ile28,31, Arg(Me)35]-PYY(22-36) [compound No. 1] | 50 | 13
Ac-[Arg23, D-Pro24, Iva25, Pya(4)26, Cha27,36, Aib28,31, Lys30]-PYY(23-36) (Ac-R[dP][Iva][4Pal][Cha][Aib]NK[Aib]TRQR[Cha]-NH2; SMILES CC[C@](C)(NC(=O)[C@H]1CCCN1C(=O)[C@H](CCCNC(=N)N)NC(C)=O)C(=O)N[C@@H](Cc1ccncc1)C(=O)N[C@@H](CC1CCCCC1)C(=O)NC(C)(C)C(=O)N[C@@H](CC(N)=O)C(=O)N[C@@H](CCCCN)C(=O)NC(C)(C)C(=O)N[C@H](C(=O)N[C@@H](CCCNC(=N)N)C(=O)N[C@@H](CCC(N)=O)C(=O)N[C@@H](CCCNC(=N)N)C(=O)N[C@@H](CC1CCCCC1)C(N)=O)[C@@H](C)O) [compound No. 321] | 0.88 | 0.78
Ac-[Aze(3)24, Cha27,28,36, Aib31]-PYY(23-36) (Ac-S[Azetidine3carboxylic]RH[Cha][Cha]NL[Aib]TRQR[Cha]-NH2; SMILES CC(=O)N[C@@H](CO)C(=O)N1CC(C(=O)N[C@@H](CCCNC(=N)N)C(=O)N[C@@H](Cc2c[nH]cn2)C(=O)N[C@@H](CC2CCCCC2)C(=O)N[C@@H](CC2CCCCC2)C(=O)N[C@@H](CC(N)=O)C(=O)N[C@@H](CC(C)C)C(=O)NC(C)(C)C(=O)N[C@H](C(=O)N[C@@H](CCCNC(=N)N)C(=O)N[C@@H](CCC(N)=O)C(=O)N[C@@H](CCCNC(=N)N)C(=O)N[C@@H](CC2CCCCC2)C(N)=O)[C@@H](C)O)C1) [compound No. 113] | 11 | 4.7
Ac-[D-Aze(2)24, Cha27,28,36, Aib31]-PYY(23-36) (Ac-S[dAze]RH[Cha][Cha]NL[Aib]TRQR[Cha]-NH2; SMILES CC(=O)N[C@@H](CO)C(=O)N1CC[C@@H]1C(=O)N[C@@H](CCCNC(=N)N)C(=O)N[C@@H](Cc1c[nH]cn1)C(=O)N[C@@H](CC1CCCCC1)C(=O)N[C@@H](CC1CCCCC1)C(=O)N[C@@H](CC(N)=O)C(=O)N[C@@H](CC(C)C)C(=O)NC(C)(C)C(=O)N[C@H](C(=O)N[C@@H](CCCNC(=N)N)C(=O)N[C@@H](CCC(N)=O)C(=O)N[C@@H](CCCNC(=N)N)C(=O)N[C@@H](CC1CCCCC1)C(N)=O)[C@@H](C)O) [compound No. 153] | 1.7 | 1.3
Ac-[D-Cha24, Abu26, Cha27,28,36, Aib31]-PYY(24-36) (Ac-[dCha]R[Abu][Cha][Cha]NL[Aib]TRQR[Cha]-NH2; SMILES CC[C@H](NC(=O)[C@H](CCCNC(=N)N)NC(=O)[C@@H](CC1CCCCC1)NC(C)=O)C(=O)N[C@@H](CC1CCCCC1)C(=O)N[C@@H](CC1CCCCC1)C(=O)N[C@@H](CC(N)=O)C(=O)N[C@@H](CC(C)C)C(=O)NC(C)(C)C(=O)N[C@H](C(=O)N[C@@H](CCCNC(=N)N)C(=O)N[C@@H](CCC(N)=O)C(=O)N[C@@H](CCCNC(=N)N)C(=O)N[C@@H](CC1CCCCC1)C(N)=O)[C@@H](C)O) [compound No. 84] | 15 | 13

— US9260500B2, “Peptide and use thereof” (Takeda Pharmaceutical Company Limited, priority 2009, dated 2016)
